Test results reported in US10202593B2, “Evolved sortases and uses thereof” (President and Fellows of Harvard College, priority 2013, dated 2019).
Where two headings read alike, the source gives them in different places.

Experiments:
mouse tissues = test: Tissue modification with GGG-Biotin (SA-568 fluorescence)
Method: FIG. 10 is a graph showing the relative increase in fluorescence of mouse tissues specifically labeled with GGG-Biotin (detected with SA-568) using a sortase recognizing the LPESG (SEQ ID NO: 3) sortase recognition motif.
Tissue section microarrays were purchased from the BioChain institute (Cat. Z7020001, Lot B508112) and deparaffinized by treatment with 2 changes Xylene for 9 minutes each, 1 change 1:1 Xylene:Ethanol for 3 minutes, 1 change 100% ethanol for 3 minutes, 1 change 90% ethanol for 3 minutes, 1 change 70% ethanol for 3 minutes, 1 change 70% ethanol+0.25% ammonia for 1 hour, 1 change 50% ethanol for 3 minutes, 1 change DI water for 5 minutes. Antigen retrieval was achieved by soaking in 10 mM Citrate pH 6 followed by microwave heating for 2 minutes, then let to rest for 8 minutes. Tissues were washed with 10 mg/mL freshly prepared Sodium borohydride in PBS for 30 minutes on ice, then washed twice with PBS for 3 minutes each.
Slides were blocked in 5% BSA/PBS for 1 hour at room temperature, then 0.001% (w/v) avidin in 5% BSA/PBS for 15 minutes, washed with 5% BSA/PBS, 0.001% (w/v) biotin in 5% BSA/PBS for 15 minutes, washed with 5% BSA/PBS and washed twice in TBS-BC (100 mM TBS, 500 mM NaCl, 0.5% BSA, 5 mM CaCl2) for three minutes. Slides were then treated with 20 uM Enzyme and 200 uM GGG-Biotin for 1 hour at room temperature, washed with 10 mM GGG in 5% BSA/PBS for 3 minutes, then washed twice with 5% BSA/PBS for 3 minutes. Slides were then treated with 2 mg/mL Sudan Black B in 70% EtOH for 30 minutes, washed three times with 5% BSA/PBS, incubated in 5% BSA/PBS+1:250 Streptavidin-568 for 30 minutes, washed 3 times with PBS, incubated with DAPI/PBS for 30 minutes and finally washed 3 times with PBS. Slides were dried, mounted and then visualized by confocal microscopy.
Tissue staining was performed as described previously, with biotin signal false colored in red and DAPI stain false colored in blue. In each case, total integrated biotin signal was computed for both negative control and SrtA+ samples, then background subtracted and used to calculate the total fluorescence enrichment shown in FIG. 10.

[1] = test system: LPETG (Abz-LPETGK(Dnp)-CONH2); test: In vitro sortase kinetics HPLC assay, LPETG substrate; format: biochemical; conditions: substrate wt (LPETG); for Km: read-out: Km, LxExG
Method: (§1) See below for details on sortase expression and purification, and on the synthesis of Abz-LPETGK(Dnp)-CONH2 (SEQ ID NO: 19). […] Reactions were initiated with the addition of enzyme and incubated at 22.5° C. for 3 to 20 minutes before quenching with 0.5 volumes of 1 M HCl. Five to ten nmol of peptide from the quenched reactions were injected onto an analytical reverse-phase Eclipse XDB-C18 HPLC column (4.6×150 mm, 5 μm, Agilent Technologies) and chromatographed using a gradient of 10 to 65% acetonitrile with 0.1% TFA in 0.1% aqueous TFA over 13 minutes. Retention times under these conditions for the Abz-LPETGK(Dnp)-CONH2 (SEQ ID NO: 19) substrate, the released GKDnp peptide, and the Abz-LPETGGG-COOH (SEQ ID NO: 20) product were 12.8, 10.4, and 9.1 min, respectively. To calculate the percent conversion, the ratio of the integrated areas of the Abz-LPETGGG-COOH (SEQ ID NO: 20) and Abz-LPETGK(Dnp)-CONH2 (SEQ ID NO: 19) peptide Abs220 peaks was compared to a standard curve generated by mixing the product and starting peptide in known ratios. To determine […] and Km, reaction rates were fit to the Michaelis-Menten equation using OriginPro 7.0 software. All kinetics values reported represent the average of at least three measurements. Percent conversion was also calculated by using the ratio of the integrated areas of the GK(Dnp)-CONH2 and Abz-LPETGK(Dnp)-CONH2 peptide Abs355 peaks were compared directly (Example 5). To determine kcat and Km, LPETG, reaction rates were fit to the Michaelis-Menten equation using Microsoft Excel using the Solver add-in. To determine Km,GGG and KH, reaction rates were fit to the modified Michaelis-Menten, for which KH is as defined when KH<<Km,GGG.
(§2) Assays to determine eSrtA, eSrtA(2A-9) and eSrtA(4S-9) specificity were performed by preparing 10 μM stocks of Abz-LXEXGK(Dnp) (SEQ ID NO: 75) peptides in 300 mM Tris pH 7.5, 150 mM NaCl, 5 mM CaCl2, 5% v/v DMSO, and 100 mM Gly-Gly-Gly-COOH (GGG). Reactions were performed by adding eSrtA(2A-9) to a final concentration of 450 nM, eSrtA(4S-9) to a final concentration of 115 nM or eSrtA to a final concentration of 47.5 nM and a final volume of 100 μL, then incubating at 22.5° C. for 15 minutes. Reactions were quenched by the addition of 0.2 volumes of 5 M HCl, then were injected onto an analytical reverse-phase Eclipse XDB-C18 HPLC column (4.6×150 mm, 5 μm, Agilent Technologies) and chromatographed using a gradient of 10 to 65% acetonitrile with 0.1% TFA in 0.1% aqueous TFA over 13 minutes. Retention times under these conditions for the Abz-LPETGK(Dnp)-CONH2 (SEQ ID NO: 19) substrate, the released GKDnp peptide, and the Abz-LPETGGG-COOH (SEQ ID NO: 20) product were 12.8, 10.4, and 9.1 min, respectively, while the remaining Abz-LXEXGK(Dnp)-CONH2 (SEQ ID NO: 74) substrates varied in retention time between 9 and 13 minutes. To calculate the percent conversion, the ratio of the integrated areas of the GK(Dnp)-CONH2 and Abz-LPETGK(Dnp)-CONH2 (SEQ ID NO: 19) peptide Abs355 peaks were compared directly. Subsequent determination of kcat/Km and KH were performed as described for in vitro SrtA characterization.
(§3) In each case, rate constants were determined by measuring enzyme velocity at eight different substrate concentrations by HPLC assay, then fit using nonlinear regression to the Michaelis-Menten equation, yielding kcat and Km. KH was calculated by measuring enzyme velocity at 1 mM target substrate and eight different GGG concentrations by HPLC assay, then fitting the resulting curves using nonlinear regression to the modified Michaelis-Menten equation.

[2] = test system: LPESG (Abz-LPESGK(Dnp)-CONH2); test: In vitro sortase kinetics HPLC assay, LPESG substrate; format: biochemical; conditions: for kcat, 1 mM LxExG (Hz) / kHydrolysis (Hz): GGG varied; for specificity (relative cat. Efficiency, fold): ratio of kcat/Km between 4S (LPESG) and wt (LPETG) substrates; for kHydrolysis (Hz): 1 mM
Method: as §1, §2, §3

[3] = 1 mM 4S (LPESG) substrate, read-out: Km, GGG
[4] = substrate 4S (LPESG), read-out: Km, LxExG

B1: 4S.6A: 5mut + N98D A104V A118S F122A K134G I182V E189V (protein)
chain: QAKPQIPKDKSKVAGYIEIPDADIKEPVYPGPATREQLDRGVSFVEENESLDDQNISISGHTAIDRPNYQFTNLGAAKKGSMVYFKVGNETRKYKMTSIRNVKPTAVEVLDEQKGKDKQLTLVTCDDYNVETGVWETRKIFVATEVK
B1 was tested, and the “labeling of tissue with GGG-Biotin” value (mouse tissues; bladder tissue) was “specific labeling”, the “labeling of tissue with GGG-Biotin” value (mouse tissues; pancreas tissue) was “specific labeling” and the “labeling of tissue with GGG-Biotin” value (mouse tissues; prostate tissue) was “specific labeling”. The “labeling of tissue with GGG-Biotin” value (mouse tissues; small intestine tissue) was “specific labeling”, the “labeling of tissue with GGG-Biotin” value (mouse tissues; spleen tissue) was “specific labeling” and the “labeling of tissue with GGG-Biotin” value (mouse tissues; testis tissue) was “specific labeling”. The “labeling of tissue with GGG-Biotin” value (mouse tissues; uterus tissue) was “specific labeling”, the “kcat, 10 mM GGG (Hz)” value [1] was 1.102 Hz and the Km [1] was 1290 µM. For the same molecule, the “Khydrolysis” value ([2]; 1 mM 4S (LPESG) substrate) was 179.3 µM, the “kcat, 1 mM LxExG (Hz)” value ([2]; 1 mM 4S (LPESG) substrate) was 1.931 Hz and the Km [2, 3] was 4.95 mM. For the same molecule, the “increase in kcat/Km for LPESG as compared to LPETG” value ([2]; FIG. 2) was about 5 fold, the “specificity (relative cat. Efficiency, fold)” value [2] was 11 fold and the kL/KL/KH ([2]; substrate 4S (LPESG)) was 5.24E+07. The “kHydrolysis (Hz)” value ([2]; substrate 4S (LPESG)) was 0.06696 Hz, the “kcat, 10 mM GGG (Hz)” value ([2]; substrate 4S (LPESG)) was 0.9537 Hz and the Km [2, 4] was 0.102 mM.

B2: 4S.6C: 5mut + N98D A104V A118T F122A K134R I182V E189F (protein)
chain: QAKPQIPKDKSKVAGYIEIPDADIKEPVYPGPATREQLDRGVSFVEENESLDDQNISITGHTAIDRPNYQFTNLRAAKKGSMVYFKVGNETRKYKMTSIRNVKPTAVEVLDEQKGKDKQLTLVTCDDYNFETGVWETRKIFVATEVK
In the case of B2, the “kcat, 10 mM GGG (Hz)” value [1] is reported as 0.003663 Hz, the Km [1] is reported as 16.1 µM and the “Khydrolysis” value ([2]; 1 mM 4S (LPESG) substrate) is reported as 334.1 µM. For the same molecule, the “kcat, 1 mM LxExG (Hz)” value ([2]; 1 mM 4S (LPESG) substrate) was 1.502 Hz, the Km [2, 3] was 36 mM and the “specificity (relative cat. Efficiency, fold)” value [2] was 18.52 fold. For the same molecule, the kL/KL/KH ([2]; substrate 4S (LPESG)) was 1.30E+07, the “kHydrolysis (Hz)” value ([2]; substrate 4S (LPESG)) was 0.01399 Hz and the “kcat, 10 mM GGG (Hz)” value ([2]; substrate 4S (LPESG)) was 0.6657 Hz. It also gave a Km [2, 4] of 0.156 mM.
